# In patent US20230322887A1 (SHANGHAI MINWEI BIOTECHNOLOGY, published 2023):
# Columns and labels:
# human glucagon receptor = human glucagon receptor (human, UniProt P47871 26-477); assay: cell-based or functional assay
# human GLP-1 receptor = human GLP-1 receptor (human, UniProt P43220 24-463); assay: cell-based or functional assay
# Chain of human glucagon receptor (P47871 26-477): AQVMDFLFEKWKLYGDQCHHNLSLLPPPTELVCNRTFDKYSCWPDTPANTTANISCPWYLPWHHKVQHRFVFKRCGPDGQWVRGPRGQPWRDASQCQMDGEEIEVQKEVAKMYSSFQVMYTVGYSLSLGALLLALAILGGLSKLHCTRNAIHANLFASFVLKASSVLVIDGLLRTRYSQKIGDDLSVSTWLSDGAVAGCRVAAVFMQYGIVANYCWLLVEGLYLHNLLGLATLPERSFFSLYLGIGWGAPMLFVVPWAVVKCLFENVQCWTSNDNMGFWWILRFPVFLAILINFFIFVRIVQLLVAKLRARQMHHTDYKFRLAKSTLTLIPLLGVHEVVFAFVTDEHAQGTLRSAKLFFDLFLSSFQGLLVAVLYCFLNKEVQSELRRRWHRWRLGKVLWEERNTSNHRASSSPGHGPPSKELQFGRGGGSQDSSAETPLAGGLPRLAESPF
Molecule,EC50 human glucagon-R (CRE-luciferase reporter cells) (human glucagon receptor) [µM],"% RLUGlucagon (CRE-luciferase reporter, against the 100 ng/ml glucagon positive control) (human glucagon receptor) [%]","% RLUGLP-1 (CRE-luciferase reporter, against the 100 ng/ml GLP-1 positive control) (human GLP-1 receptor) [%]"
GLP-1 (from UniProt P01275 92-128) (ligand),> 1000,–,–
HSQGTFTSDYSKYLDEQAAKEFIAWLIAGGPSSGAPPPS [GLP-1/glucagon dual agonist polypeptide expressed by clone 3D9],–,197,286
HSQGTFTSDYSKYLDEQRAKEFVAWLIAGGPSSGAPPPS [GLP-1/glucagon dual agonist polypeptide expressed by clone 12C6],–,112,183
HSQGTFTSDYSKYLDEQRAKDFIAWLIAGGPSSGAPPPS [GLP-1/glucagon dual agonist polypeptide expressed by clone 6B7],–,156,123
